The source of these data is US20130164256A1 (AbbVie / Abbott, published 2013).

Where a chain is given by its changes, count along the chain named.

The target in assay [1] is T1, human TNF-α (human, UniProt P01375 77-233). Nature of the assay: cell-based or functional assay.
T1 sequence (P01375 77-233 R107D limits assumed): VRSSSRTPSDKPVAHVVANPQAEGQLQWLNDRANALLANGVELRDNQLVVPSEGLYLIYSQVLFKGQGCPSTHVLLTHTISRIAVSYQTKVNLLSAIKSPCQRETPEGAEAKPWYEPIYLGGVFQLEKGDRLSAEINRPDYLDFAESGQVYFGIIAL
The target in assay [2] is Rhesus/Macaque TNF (rhesus/macaque, UniProt P48094 77-233). The experiment in a line: cell-based or functional assay.
For assay [3], the target named is T1, human TNF-α. The experiment in a line: ELISA: IgG captured on goat anti-human IgG-Fc, biotin-human TNF titrated, streptavidin-HRP. On the technique in general: ELISA stands for enzyme-linked immunosorbent assay.
Assay [4] has as its target T2, human TNF-α (human, UniProt P01375 77-233).
T2 construct: The ELISA protocol (section 1.3) uses biotinylated human TNF; The L929 assay uses human TNF prepared at Abbott Bioresearch Center; also called hTNFa; hTNF
Nature of the assay: hTNFa ELISA; IgG captured on anti-human IgG-Fc, biotinylated human TNF titrated.
T2 sequence (P01375 77-233 R107D limits assumed): as above

The target of assay [5] is Rhesus/Macaque TNF (Rhesus/Macaque, UniProt P48094 77-233). The experiment in a line: cell-based or functional assay.
Sequence of Rhesus/Macaque TNF (Rhesus/Macaque, UniProt P48094 77-233) (P48094 77-233 limits assumed): as the sequence (P01375 77-233 R107D limits assumed) above, with D31R, R44T, T72N, R138L counted along it
Assay [6] addresses T2, human TNF-α. Nature of the assay: cell-based or functional assay. This is another data set of the same source.

Sequence of Rhesus/Macaque TNF (rhesus/macaque, UniProt P48094 77-233) (P48094 77-233 limits assumed): as the sequence (P01375 77-233 R107D limits assumed) above, with D31R, R44T, T72N, R138L counted along it

B1: hMAK195-AM14 (antibody, V domains shown)
VH: EVQLVESGGGLVQPGGSLRLSCAASGFTFSNYGVSWVRQAPGKGLEWVSMIWADGSTHYASSLKGRFTISRDNSKNTLYLQMNSLRAEDTAVYYCAREWQHGPVAYWGQGTLVTVSS
VL: DIQMTQSPSSLSASVGDRVTITCKASQAVSSAVAWYQQKPGKAPKLLIYWASTRHTGVPSRFSGSGSGTDFTLTISSLQPEDFATYYCQQHYSTPFTFGQGTKLEIKR
notes: Full-length IgG; also called rHC3; hMAK195 rHC3
A word on the EC50: it is the concentration at which the effect is half-maximal. The low end stands for an effect from little substance, the high end for a need for much substance. For the molecule B1, the “hu TNF neutralization IC50 (L929 bioassay)” value in assay [1] came out at 0.0401 nM. The “rhesus TNF neutralization IC50 (L929 bioassay)” value in assay [2] is 4.61 nM. Also, the EC50 in assay [3] was 0.051 nM.

B2: hMAK195-AM16 (antibody, V domains shown)
VH: B1 VH with S35T, L63V, V104A
VL: B1 VL
notes: Full-length IgG; also called rHC19; hMAK195 rHC19
On to B2, for which, in assay [1], the “hu TNF neutralization IC50 (L929 bioassay)” value is 0.0105 nM. Besides, the “rhesus TNF neutralization IC50 (L929 bioassay)” value in assay [2] is 0.803 nM. In assay [3], this molecule had an EC50 of 0.056 nM.

B3: hMAK195-AM25 (antibody, V domains shown)
VH: B1 VH with S35T, L63V
VL: B1 VL with K24R, A28L, R54L, S93R
notes: Full-length IgG; also called S4-24; hMAK195 S4-24
As for B3, in assay [1], the “hu TNF neutralization IC50 (L929 bioassay)” value was found to be 0.0114 nM. In addition, the “rhesus TNF neutralization IC50 (L929 bioassay)” value in assay [2] was determined as 0.262 nM. In assay [3], this molecule had an EC50 of 0.052 nM.

B4: hMAK195-AM17 (antibody, V domains shown)
VH: B1 VH with S35T, H58D, S61D, S62T, L63V
VL: B1 VL
notes: Full-length IgG; also called rHC22; hMAK195 rHC22
Turning to B4, the “hu TNF neutralization IC50 (L929 bioassay)” value in assay [1] was found to be 0.0031 nM. Also, the “rhesus TNF neutralization IC50 (L929 bioassay)” value in assay [2] is more than 25 nM. This molecule also gave an EC50 in assay [3] of 0.056 nM.

B5: hMAK199-AM1 (antibody, V domains shown)
VH: EVQLVQSGAEVKKPGASVKVSCKASGYTFANYGIIWVRQAPGQGLEWMGWINTYTGKPTYAQKFQGRVTMTTDTSTSTAYMELSSLRSEDTAVYYCARKLFTTMDVTDNAMDYWGQGTTVTVSS
VL: DIQMTQSPSSLSASVGDRVTITCRASQDISQYLNWYQQKPGKAPKLLIYYTSRLQSGVPSRFSGSGSGTDFTLTISSLQPEDFATYFCQQGNTWPPTFGQGTKLEIK
notes: scFv clone J662M2S3#10 converted to full length IgG; HC plasmid pHybE-hCg1,z,non-a V2 (human IgG1), LC plasmid pHybE-hCk V3 (human kappa); also called J662M2S3#10
In assay [4], B5 showed an EC50 of 0.016 nM. Further, the “rhesus TNF neutralization IC50” value in assay [5] is 0.012 nM. For the same molecule, the “hu TNF neutralization IC50” value in assay [6] amounted to 0.054 nM.

B6: hMAK199-AM8 (antibody, V domains shown)
VH: B5 VH
VL: B5 VL
notes: scFv clone J662M2S3#45 converted to full length IgG; HC plasmid pHybE-hCg1,z,non-a V2 (human IgG1), LC plasmid pHybE-hCk V3 (human kappa); also called J662M2S3#45
In assay [4], B6 had an EC50 of 0.219 nM. The “rhesus TNF neutralization IC50” value in assay [5] came out at 0.204 nM. Further, the “hu TNF neutralization IC50” value in assay [6] was found to be 0.247 nM.
